Measured values as given in patent US20200354457A1 (Hoffmann-La Roche, published 2020).
“And” between values parts separate entries of the source, which are not always exact repeats. Identical values can stand only once.

T1: biotinylated MCSP antigen (amino acids 1553 to 2184 of matured melanoma-associated chondroitin sulfate … (Homo sapiens (Human), UniProt Q6UVK1 1582-2213, limits assumed, biotin on the C-terminal avi-tag))
T1 construct: The entry may include the leader; also called recombinant MCSP
T1 sequence: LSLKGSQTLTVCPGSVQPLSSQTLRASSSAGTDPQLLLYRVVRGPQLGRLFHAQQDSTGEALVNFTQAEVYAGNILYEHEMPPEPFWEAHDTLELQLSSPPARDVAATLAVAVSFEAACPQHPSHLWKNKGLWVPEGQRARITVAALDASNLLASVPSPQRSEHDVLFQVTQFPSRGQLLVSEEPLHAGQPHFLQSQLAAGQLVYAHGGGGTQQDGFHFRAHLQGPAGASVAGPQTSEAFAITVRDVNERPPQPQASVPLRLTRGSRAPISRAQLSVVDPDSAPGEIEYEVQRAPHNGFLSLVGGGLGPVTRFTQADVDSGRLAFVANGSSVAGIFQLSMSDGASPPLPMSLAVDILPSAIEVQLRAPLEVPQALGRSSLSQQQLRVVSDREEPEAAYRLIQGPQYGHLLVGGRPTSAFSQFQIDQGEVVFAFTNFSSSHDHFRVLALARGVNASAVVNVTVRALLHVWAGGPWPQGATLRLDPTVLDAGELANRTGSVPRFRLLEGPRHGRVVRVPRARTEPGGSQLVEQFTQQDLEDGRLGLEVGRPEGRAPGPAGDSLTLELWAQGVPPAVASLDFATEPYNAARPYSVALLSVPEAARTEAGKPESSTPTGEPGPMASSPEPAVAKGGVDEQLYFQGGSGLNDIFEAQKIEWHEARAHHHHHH

T2: human LAG3 on recombinant CHO cells (human, UniProt P18627 23-525)
T2 construct: whole, on cells; also called Lag3 cells; recombinant CHO cells expressing Lag3
T2 sequence (looked up): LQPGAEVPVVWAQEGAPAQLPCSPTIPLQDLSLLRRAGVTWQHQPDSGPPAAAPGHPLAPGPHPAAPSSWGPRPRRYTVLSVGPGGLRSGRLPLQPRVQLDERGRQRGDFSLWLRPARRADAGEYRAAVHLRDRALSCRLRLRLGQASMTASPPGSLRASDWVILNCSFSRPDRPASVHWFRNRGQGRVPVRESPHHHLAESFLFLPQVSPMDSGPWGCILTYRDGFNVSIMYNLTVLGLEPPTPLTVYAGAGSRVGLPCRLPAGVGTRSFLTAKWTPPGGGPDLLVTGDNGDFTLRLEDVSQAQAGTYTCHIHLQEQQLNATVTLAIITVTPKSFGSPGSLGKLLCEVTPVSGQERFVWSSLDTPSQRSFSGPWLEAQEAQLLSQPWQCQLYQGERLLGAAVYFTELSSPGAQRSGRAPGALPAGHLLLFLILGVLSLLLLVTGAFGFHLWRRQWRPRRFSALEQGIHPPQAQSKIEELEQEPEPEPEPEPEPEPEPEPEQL

T3: recombinant human LAG3 Fc Chimera Protein (R&D Systems, 2319-L3) (human, UniProt P18627 23-450)
T3 construct: Bought reagent
T3 sequence (looked up): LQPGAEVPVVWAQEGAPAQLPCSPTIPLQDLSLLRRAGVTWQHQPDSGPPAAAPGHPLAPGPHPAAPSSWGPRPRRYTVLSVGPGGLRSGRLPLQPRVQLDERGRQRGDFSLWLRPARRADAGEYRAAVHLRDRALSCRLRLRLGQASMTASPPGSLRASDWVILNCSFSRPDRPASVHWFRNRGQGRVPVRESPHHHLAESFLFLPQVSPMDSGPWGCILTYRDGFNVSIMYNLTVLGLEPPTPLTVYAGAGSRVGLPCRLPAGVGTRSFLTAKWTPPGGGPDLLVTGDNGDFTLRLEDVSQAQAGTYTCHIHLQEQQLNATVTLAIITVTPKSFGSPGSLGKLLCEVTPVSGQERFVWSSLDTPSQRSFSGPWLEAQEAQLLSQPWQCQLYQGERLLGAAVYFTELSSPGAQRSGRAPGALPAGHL

T4: murine LAG3-Fc antigen (R&D Systems, 3328-L3-050) (murine, UniProt Q61790 24-442)
T4 construct: Bought reagent
T4 sequence (looked up): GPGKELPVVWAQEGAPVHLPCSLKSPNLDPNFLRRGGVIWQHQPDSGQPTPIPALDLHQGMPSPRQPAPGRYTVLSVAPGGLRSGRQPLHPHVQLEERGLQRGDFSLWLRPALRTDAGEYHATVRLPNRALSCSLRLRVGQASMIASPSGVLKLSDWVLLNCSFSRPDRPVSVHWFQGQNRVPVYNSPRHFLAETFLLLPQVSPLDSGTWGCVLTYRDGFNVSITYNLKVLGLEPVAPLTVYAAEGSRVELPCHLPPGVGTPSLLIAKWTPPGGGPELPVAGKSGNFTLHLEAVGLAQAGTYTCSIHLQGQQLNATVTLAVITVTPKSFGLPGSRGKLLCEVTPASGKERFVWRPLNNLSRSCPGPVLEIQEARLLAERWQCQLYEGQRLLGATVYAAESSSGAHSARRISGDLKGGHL


Experiments:
[1] = target: T1, biotinylated MCSP antigen (amino acids …); experiment: SPR (ProteOn XPR36), biotinylated MCSP captured on NLC chip, purified aVH as analyte, 25 C
[2] = target: T2, human LAG3 on recombinant CHO cells; experiment: cell ELISA on CHO cells expressing human LAG3;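 further: bivalent Fc-format binders titrated in threefold steps from 6 µg/mL, incubated with the cells 2 h at 4 °C, bound antibody detected by HRP-coupled anti-human IgG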
[3] = target: T3, recombinant human LAG3 Fc Chimera …; experiment: ELISA, plate coated with human LAG3 Fc chimera
[4] = target: T3, recombinant human LAG3 Fc Chimera …; experiment: SPR (Biacore), aVH-Fc captured by anti-human Fc, human LAG-3 Fc chimera as analyte, 25 C
[5] = target: T5, soluble human Lag3-IgG1-Fc with biotinylated C-terminal Avi-tag (human, biotin on the C-terminal Avi-tag); experiment: A375 MHCII competition ELISA at 3 µg/ml, biotinylated Lag3 250 ng/ml; competitor MHCII on A375 cells
T5 construct: also called LAG3-Fc-avi; biotinylated LAG3-Fc antigen

[6] = target: T4, murine LAG3-Fc antigen (R&D Systems, …); experiment: ELISA using murine LAG3-Fc antigen
[7] = target: T6, cynomolgus LAG3 on transiently transfected HEK293F cells (cynomolgus); experiment: flow cytometry on HEK293F cells transfected with cyno LAG3, 10 µg/ml
T6 construct: whole, on cells; also called cyno LAG3; cynomolgus Lag3-positive HEK cells

[8] = target: T5, soluble human Lag3-IgG1-Fc with …; experiment: A375 MHCII competition ELISA, biotinylated Lag3 250 ng/ml; competitor MHCII on A375 cells

Binder | Kd [1] [nM] | koff [1] [s⁻¹] | kon [1] [M⁻¹ s⁻¹] | EC50 [2] | OD max [2] [OD] | EC50 [3] | OD max [3] [OD] | koff [4] [s⁻¹] | t1/2 [4] [h] | % Inhibition [5] [%] | binding result [6] | LAG3 positive cells (%) [7] [%] | Signal intensity (Geo Mean) [7] [Geo Mean] | IC50 [8]
MCSP-specific disulfide-stabilized aVH clone 44 (VHH, Autonomous human VH domain purified from E. coli) VHH: EVQLVESGGGLVQPGGSLRLSCAASGFNIKDGYIDWVRRAPGKGTELVASIECTNGRATRYADSVKGRFTISCDTSKNTAYLQMNSLRAEDTAVYYCAYAGIGYYFYYWGQGTTVTVSS | 109 | 0.0163 | 150000 |  |  |  |  |  |  |  |  |  |  | 
bivalent 9B4 aVH-Fc (Fc fusion) EVQLVESGGGLVQPGGSLRLSCAASGFNIKDTCIGWVRRAPGKGTELVAEICQDIGYTRYADSVKGRFTISADTSKNTAYLQMNSLRAEDTAVYYCAAVEVAEYFEYWGQGTTVTVSSGGGGSGGGGSDKTHTCPPCPAPEAAGGPSVFLFPPKPKDTLMISRTPEVTCVVVDVSHEDPEVKFNWYVDGVEVHNAKTKPREEQYNSTYRVVSVLTVLHQDWLNGKEYKCKVSNKALGAPIEKTISKAKGQPREPQVYTLPPSRDELTKNQVSLTCLVKGFYPSDIAVEWESNGQPENNYKTTPPVLDSDGSFFLYSKLTVDKSRWQQGNVFSCSVMHEALHNHYTQKSLSLSPGK |  |  |  | 0.0288 µg/mL and 0.4 nM | 1.3 | 0.0194 µg/mL and 0.3 nM | 1.2 | 0.00019 | 1.02 | 95.5 | no binding | 68.8 | 2060 | 0.0762 µg/mL and 1 nM
MCSP-specific disulfide-stabilized aVH clone 57.1 (VHH, Autonomous human VH domain purified from E. coli) VHH: EVQLVESGGGLVQPGGSLRLSCAASGFNIKQNCIEWVRRAPGKGTELVANICHDIGSTRYADSVKGRFTISADTSKNTAYLQMNSLRAEDTAVYYCAAWEQKGFNYWGQGTTVTVSS | 48 | 0.0142 | 295000 |  |  |  |  |  |  |  |  |  |  | 
MCSP-specific disulfide-stabilized aVH clone 2 (VHH, Autonomous human VH domain purified from E. coli by IMAC) VHH: EVQLVESGGGLVQPGGSLRLSCAASSFNIKDTYIGWVRRAPGKGTELVASIDCIYGYTRYADSVKGRFTISCDTSKNTAYLQMNSLRAEDTAVYYCAAQGYRLHYWGQGTTVTVSS | 8 | 0.00339 | 458000 |  |  |  |  |  |  |  |  |  |  | 

Continued, values first:

Kd [1] [nM] | koff [1] [s⁻¹] | kon [1] [M⁻¹ s⁻¹] | EC50 [2] | OD max [2] [OD] | EC50 [3] | OD max [3] [OD] | koff [4] [s⁻¹] | t1/2 [4] [h] | % Inhibition [5] [%] | binding result [6] | LAG3 positive cells (%) [7] [%] | Signal intensity (Geo Mean) [7] [Geo Mean] | IC50 [8] | Binder
 |  |  | 0.0354 µg/mL and 0.5 nM | 1.4 | 0.0145 µg/mL and 0.2 nM | 1.2 | 0.00018 | 1.1 | 91.7 | no binding | 63.6 | 1980 | 0.104 µg/mL and 1.4 nM | bivalent 17D7 aVH-Fc (Fc fusion) EVQLVESGGGLVQPGGSLRLSCAASGFNIKDTCIGWVRRAPGKGTELVAEICTDIGYTRYADSVKGRFTISADTSKNTAYLQMNSLRAEDTAVYYCAAGEGSSGFHYWGQGTTVTVSSGGGGSGGGGSDKTHTCPPCPAPEAAGGPSVFLFPPKPKDTLMISRTPEVTCVVVDVSHEDPEVKFNWYVDGVEVHNAKTKPREEQYNSTYRVVSVLTVLHQDWLNGKEYKCKVSNKALGAPIEKTISKAKGQPREPQVYTLPPSRDELTKNQVSLTCLVKGFYPSDIAVEWESNGQPENNYKTTPPVLDSDGSFFLYSKLTVDKSRWQQGNVFSCSVMHEALHNHYTQKSLSLSPGK
 |  |  | 0.0603 µg/mL and 0.8 nM | 1.2 | 0.143 µg/mL and 1.9 nM | 1.1 | 6.8e-05 | 2.83 | 91 | no binding |  |  | 0.155 µg/mL and 2.1 nM | bivalent P11E2 aVH-Fc (Fc fusion) EVQLVESGGGLVQPGGSLRLSCAASGFNIKDTCIGWVRRAPGKGTELVAEICDDIGYTRYADSVKGRFTISADTSKNTAYLQMNSLRAEDTAVYYCASQEHQWSFKYWGQGTTVTVSSGGGGSGGGGSDKTHTCPPCPAPEAAGGPSVFLFPPKPKDTLMISRTPEVTCVVVDVSHEDPEVKFNWYVDGVEVHNAKTKPREEQYNSTYRVVSVLTVLHQDWLNGKEYKCKVSNKALGAPIEKTISKAKGQPREPQVYTLPPSRDELTKNQVSLTCLVKGFYPSDIAVEWESNGQPENNYKTTPPVLDSDGSFFLYSKLTVDKSRWQQGNVFSCSVMHEALHNHYTQKSLSLSPGK
 |  |  | 0.0375 µg/mL and 0.5 nM | 1.3 | 0.121 µg/mL and 1.6 nM | 1.9 | 2.4e-05 | 8.16 | 97.2 | no binding |  |  | 0.086 µg/mL and 1.1 nM | bivalent P11E9 aVH-Fc (Fc fusion) EVQLVESGGGLVQPGGSLRLSCAASGFNIKDTCIGWVRRAPGKGTELVAEICHDIGYTRYADSVKGRFTISADTSKNTAYLQMNSLRAEDTAVYYCAAEEHVASFEYWGQGTTVTVSSGGGGSGGGGSDKTHTCPPCPAPEAAGGPSVFLFPPKPKDTLMISRTPEVTCVVVDVSHEDPEVKFNWYVDGVEVHNAKTKPREEQYNSTYRVVSVLTVLHQDWLNGKEYKCKVSNKALGAPIEKTISKAKGQPREPQVYTLPPSRDELTKNQVSLTCLVKGFYPSDIAVEWESNGQPENNYKTTPPVLDSDGSFFLYSKLTVDKSRWQQGNVFSCSVMHEALHNHYTQKSLSLSPGK
